Here are results for 67 sequences from the supplement of paper PMC10126150.

± gives the standard deviation of the averaged measurements.

This data set concerns ATP. As to the kind of experiment: switch fluorescence ratio, 500 uM ATP over buffer (Cy3 cluster intensity, sum of 5 cycles each) (fold (ratio)); higher = stronger signal-on switching upon ATP binding; sequences stand for … in TCGTCGGCAGCGTCAGATGTGTATAAGAGACAGTTTTTTTTTTTTTTTTTTTTTTTTT…TC. As to conditions: aptamer strand: ATP DNA aptamer (quencher-CACCTGGGGGAGTATTGCGGAGGAAGG + anchor), 100 nM annealed; ATP concentration: 500 uM. The procedure, abridged: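 After annealing to 100 nM quencher-labelled ATP aptamer, Cy3-labelled switching-strand clusters on a modified Illumina MiSeq flow-cell were imaged in selection buffer. A second image followed after 15 min with 500 uM ATP at 22 °C, and five such buffer/ATP cycles were done, each separated by NaOH stripping and re-annealing. The fluorescence ratio, averaged per switch-domain sequence, is summed target-cycle over summed buffer-cycle Cy3 intensity per cluster, with clusters outside 100-1000 RFU excluded.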
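Note: ATP exposure 15 min at 22 °C before imaging.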

On to CCCGGAGGCA, for which the switch fluorescence ratio amounted to 1.057 ± 0.004.
The result for CCCGGCTGGT reads 0.9956 ± 0.0095; that for CCCGGGGGT, 1.13 ± 0.2.
For CCCGGGGTTT, the switch fluorescence ratio came to 1.31 ± 0.36.
The result for CCCGGGTGAT reads 4 ± 0.3.
As to CCCGGGTTGT, the switch fluorescence ratio is 1.16 ± 0.12.
For CCCGGTTTTT the value was 1.06 ± 0.022; for CCCGTATGTT, 1.03 ± 0.018.
The result for CCCTAATAGA reads 1.03 ± 0.026; that for CCCTAGTGTG, 2.97 ± 2.6; that for CCCTATATAG, 1.01 ± 0.011.
Turning to CCCTCTCGGT, the switch fluorescence ratio was 1.037 ± 0.0028.
The result for CCCTGAGGGA reads 1.18 ± 0.086; that for CCCTGGACGA, 1.07 ± 0.016.
Consider CCCTGGCACT, for which the switch fluorescence ratio came to 1.12 ± 0.005.
Take CCCTGTTCGC: the switch fluorescence ratio was found to be 1.03 ± 0.041.
With CCGAAATTTA, the switch fluorescence ratio worked out at 1.19 ± 0.02.
For CCGAAGGACT the value was 1.02 ± 0.072; for CCGAAGTCCT, 1.25 ± 0.033; for CCGAATCCAG, 1.111 ± 0.0099.
For CCGAATTTT the value was 1.02 ± 0.037; for CCGAGGGGGG, 1.25 ± 0.35; for CCGAGGTCGT, 1.17 ± 0.066.
Consider CCGAGTAGAG, for which the switch fluorescence ratio was 1.4 ± 0.067.
On to CCGAGTGGGT, for which the switch fluorescence ratio came to 1.44 ± 0.57.
With CCGAGTTAGG, the switch fluorescence ratio turned out to be 1.068 ± 0.0066.
For CCGAGTTTTT the value was 1.07 ± 0.086; for CCGATAGATG, 1.065 ± 0.0047; for CCGATGATTG, 1.08 ± 0.014.
Turning to CCGATGGGGA, the switch fluorescence ratio stood at 1.156 ± 0.0049.
As for CCGATGGGGG, the switch fluorescence ratio is 1.01 ± 0.025.
As for CCGATTATTT, the switch fluorescence ratio is 0.997 ± 0.015.
With CCGCAGGGTT, the switch fluorescence ratio was determined as 1.51 ± 0.58.
Turning to CCGCCTTGTT, the switch fluorescence ratio was determined as 1.11 ± 0.044.
For CCGCGGGTTC the value was 1.55 ± 0.45; for CCGGAAGGGG, 1.06 ± 0.02.
For CCGGACCACG the value was 1.01 ± 0.029.
Consider CCGGACCCAA, for which the switch fluorescence ratio worked out at 1.75 ± 0.23.
The result for CCGGACGCGT reads 1.52 ± 0.26; that for CCGGAGAGGT, 2.28 ± 0.23.
The result for CCGGAGATTT reads 1.57 ± 0.028; that for CCGGAGGGGG, 1.05 ± 0.02.
For the sequence CCGGATCGCG, the switch fluorescence ratio was 1.043 ± 0.0047.
CCGGATGGAG: the switch fluorescence ratio stood at 1.02 ± 0.036.
As for CCGGCGGGG, the switch fluorescence ratio stood at 1.04 ± 0.027.
The result for CCGGCTGGTG reads 1.197 ± 0.0056.
In the case of CCGGGAAATT, the switch fluorescence ratio came to 1.22 ± 0.36.
As to CCGGGAAGGC, the switch fluorescence ratio amounted to 2.043 ± 0.0097.
For CCGGGAGTTG the value was 1.01 ± 0.024; for CCGGGATGGG, 1.03 ± 0.022; for CCGGGCGGTG, 1.04 ± 0.021.
The result for CCGGGCTGGA reads 1.08 ± 0.074; that for CCGGGGCACT, 1.34 ± 0.26.
For CCGGGGCCTA the value was 1.05 ± 0.026; for CCGGGGGGTG, 1.07 ± 0.066.
Turning to CCGGGGTAAG, the switch fluorescence ratio was 1.03 ± 0.029.
The result for CCGGGTAGTA reads 1.12 ± 0.11; that for CCGGGTGGG, 1.01 ± 0.062.
In the case of CCGGGTGTTT, the switch fluorescence ratio was 1.63 ± 0.75.
With CCGGGTTGGG, the switch fluorescence ratio was found to be 1.02 ± 0.036.
The result for CCGGGTTTAC reads 1.621 ± 0.013.
Take CCGGTGCGGC: the switch fluorescence ratio stood at 1.48 ± 0.23.
With CCGGTGCTCG, the switch fluorescence ratio was 1.04 ± 0.047.
For CCGGTTACAG the value was 1.07 ± 0.0078.
For CCGGTTGAGA the value was 1 ± 0.016; for CCGGTTTTTG, 1.01 ± 0.05.
The result for CCGTAACGGA reads 0.972 ± 0.012.
